Source: paper PMC5461033 (The Journal of Cell Biology, 2017)

T1: FLAG-Sec16 (1,101–1,600 aa) (human, UniProt O15027-4 1101-1600)
T1 sequence: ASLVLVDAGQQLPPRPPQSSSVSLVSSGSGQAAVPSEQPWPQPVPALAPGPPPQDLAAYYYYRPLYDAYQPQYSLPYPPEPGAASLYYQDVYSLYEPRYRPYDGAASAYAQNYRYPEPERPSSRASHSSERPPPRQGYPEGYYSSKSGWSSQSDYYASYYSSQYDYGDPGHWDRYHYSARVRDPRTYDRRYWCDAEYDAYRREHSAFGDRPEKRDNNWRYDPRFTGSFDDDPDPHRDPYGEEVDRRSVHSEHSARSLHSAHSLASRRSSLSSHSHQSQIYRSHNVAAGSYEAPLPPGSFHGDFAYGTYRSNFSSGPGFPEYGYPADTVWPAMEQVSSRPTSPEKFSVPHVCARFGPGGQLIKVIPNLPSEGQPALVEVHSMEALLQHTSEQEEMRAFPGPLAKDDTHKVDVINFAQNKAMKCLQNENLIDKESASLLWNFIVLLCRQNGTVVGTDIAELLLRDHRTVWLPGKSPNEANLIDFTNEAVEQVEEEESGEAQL


Molecular target: T1, FLAG-Sec16 (1,101–1,600 aa)
Experiment: pull-down

Row | binding result | Binder
1 | binds | GST-tagged TANGO1-PRDΔ60 (1,651–1,847 aa) (domain or fragment) NTQNPPRRGPLSQNGSFGPSPVSGGECSPPLTVEPPVRPLSATLNRRDMPRSEFGSVDGPLPHPRWSAEASGKPSPSDPGSGTATMMNSSSRGSSPTRVLDEGKVNMAPKGPPPFPGVPLMSTPMGGPVPPPIRYGPPPQLCGPFGPRPLPPPFGPGMRPPLGLREFAPGVPPGRRDLPLHPRGFLPGHAPFRPLGS
2 | binds | GST-tagged TANGO1-PRD (1,651–1,907 aa) (domain or fragment) NTQNPPRRGPLSQNGSFGPSPVSGGECSPPLTVEPPVRPLSATLNRRDMPRSEFGSVDGPLPHPRWSAEASGKPSPSDPGSGTATMMNSSSRGSSPTRVLDEGKVNMAPKGPPPFPGVPLMSTPMGGPVPPPIRYGPPPQLCGPFGPRPLPPPFGPGMRPPLGLREFAPGVPPGRRDLPLHPRGFLPGHAPFRPLGSLGPREYFIPGTRLPPPTHGPQEYPPPPAVRDLLPSGSRDEPPPASQSTSQDCSQALKQSP
